Data from the nanobody polyreactivity screen of Harvey et al. (2022).

Assay: yeast display, Sf9 membrane polyspecificity reagent, FACS + sequencing; frameworks hold sequencing errors
Outline: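 Galactose-induced (36–48 hours) yeast carrying a synthetic nanobody display library were exposed to 10% biotinylated, detergent-solubilized Sf9 membrane reagent at 4 °C for 1 hour. FACS followed streptavidin microbead enrichment, using low and high (top ~1%) gates for expression (anti-HA) and reagent binding (streptavidin). Colony PCR, MiSeq 2 × 250 sequencing and CDR-length filtering followed. Labels for polyreactivity reflect the gate of origin.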

Which “polyreactivity (PSR sort gate)” value does the source give for “QVQLVESGGGLVQAGGSLRLSCAASGRTFGVYAMGWYRQAPGKESELVAAISRLAGNTYYADSVKGRFTISRDNAKNTVYLQMNSLKPEDTAVYYCAADFSRQYGYWGQGTQVTVSS” here?
Its value is “high polyreactivity”.

Which “polyreactivity (PSR sort gate)” value does the source give for “QVQLVESGGGLVQAGGSLRLSCAASGRTFGVYVKGWYRQAPGKERELVAAIDDSGGSTYYADSVKGRFTISRDNAKNTVYLQMNSLKPEDTAVYYCAKTKTQYLTSEIRFDYWGQGTQVTVSS” here?
The value was “low polyreactivity”.

For “QVQLVESGGGLVQAGGSLRLSCAASGRTFGWYAMGWYRQAPGKERELVAAIRSSGGRTHYADSVKGRFTISRDNAKNTVYLQMNSLKPEDTAVYYCAARYSAAYYWGQGTQVTVSS”, which “polyreactivity (PSR sort gate)” value is on record?
The value was “high polyreactivity”.

Which “polyreactivity (PSR sort gate)” value does the source give for “QVQLVESGGGLVQAGGSLRLSCAASGRTFGWYAMGWYRQAPGKERELVAAISLSGGSTYYADSVKGRFTISRDNAKNTVYLQMNSLKPEDTAVYYCNALILPTKMGYWGQGTQVTVSS” here?
Its value is “low polyreactivity”.

Which “polyreactivity (PSR sort gate)” value does the source give for “QVQLVESGGGLVQAGGSLRLSCAASGRTFGWYAMGWYRQAPGKERELVATITRGGSTYYADSVKGRFTISRDNAKNTVYLQMNSLKPEDTAVYYCNARRYLWLRRYDYWGQGTQVTVSS” here?
Its value is “high polyreactivity”.

For “QVQLVESGGGLVQAGGSLRLSCAASGRTFGYNALGWYRQAPGKERELVAAITRGGITHYADSVKGRFTISRDNAKNTVYIQKNSLKPEDTAGYYCAKRGPYYTDDEYYWGQGTQVTVSS”, which “polyreactivity (PSR sort gate)” value is on record?
The value was “low polyreactivity”.

Which “polyreactivity (PSR sort gate)” value does the source give for “QVQLVESGGGLVQAGGSLRLSCAASGRTFGYNAMGWYIQAPGKERELVAAINWSGASTYYADYVKGRFTISRDNAKNTVYLQMNSLKPEDTAVYYCAADYSYIYGFDYWGQGTQVTVSS” here?
The value was “low polyreactivity”.

With “QVQLVESGGGLVQAGGSLRLSCAASGRTFGYNAMGWYRQAAGKERELVAAISSSGGSTYYADSVKGRFTISRDNAKNTVYLQMNSLKPEDTAVYYCATQGYSWAHGSDYWGQGTQVTVSS” as the sequence, how does the “polyreactivity (PSR sort gate)” value read?
The value was “low polyreactivity”.

Which “polyreactivity (PSR sort gate)” value does the source give for “QVQLVESGGGLVQAGGSLRLSCAASGRTFGYNAMGWYRQAPGKERELVAAINWSGASTYYADSVKGRFTISRDNAKNTVYLQMNSLKPEDTAVYYCAADYSYIYGFDYWGQGTQVTLSS” here?
Its value is “low polyreactivity”.

Which “polyreactivity (PSR sort gate)” value does the source give for “QVQLVESGGGLVQAGGSLRLSCAASGRTFGYNAMGWYRQAPGKERELVATISWGGGSTYYADSVKGRFTISRDNAKNTVYLQMNSLKPEDTAVYYCNKVHYGRRHSYSGAIYGEDYWGQGTQVTVSS” here?
Its value is “high polyreactivity”.

Which “polyreactivity (PSR sort gate)” value does the source give for “QVQLVESGGGLVQAGGSLRLSCAASGRTFGYNAMGWYRQAPGKERELVAVITSSGGRTYADSVKGRFTISRDNAKNTVYLQMNSLKPEDTAVYYCATRTRLAQYSRGRYRYDYWGQGTQVTVSS” here?
Its value is “high polyreactivity”.

For “QVQLVESGGGLVQAGGSLRLSCAASGRTFGYNAMGWYSQAPGKETELVAAINWSDASTYYADSVKGRFTISRDNAKNTVSLQMNSLKPEDTAVYYCAADYSYIYGFDYWGQGTLVTVSS”, which “polyreactivity (PSR sort gate)” value is on record?
The value was “low polyreactivity”.

For “QVQLVESGGGLVQAGGSLRLSCAASGRTFGYYAMGWYRQAPGKEREFVAAISSSGGSTYYADSVKGRFTISRDNAKNTVYLQMNSLKPEDTAVYYCAARRNYFYGYYYWGQGTQVTVSS”, which “polyreactivity (PSR sort gate)” value is on record?
Its value is “high polyreactivity”.

For “QVQLVESGGGLVQAGGSLRLSCAASGRTFGYYAMGWYRQAPGKERELVAAISNSGGRTYYADSLKGRFTISRDNAKNTVYLQMNSLKPEDTAVYYCAAVVSYRFDYWGQGTQVTVSS”, which “polyreactivity (PSR sort gate)” value is on record?
Its value is “high polyreactivity”.

Which “polyreactivity (PSR sort gate)” value does the source give for “QVQLVESGGGLVQAGGSLRLSCAASGRTFGYYAMGWYRQAPGKERELVAAISSRGGSTYYADSVKGRFTISRDNAKNTVYLQMNSLKPEDTAVYYCNTRWTNIHPRYDYWGQGTQVTVSS” here?
Its value is “high polyreactivity”.

For “QVQLVESGGGLVQAGGSLRLSCAASGRTFGYYAMGWYRQAPGKERELVATITWSGGSTYYADSVKGRFTISRDNAKNTVYLQMNSLKPEDTAVYYCATDALYTYGYDYWGQGTQVTVSS”, which “polyreactivity (PSR sort gate)” value is on record?
Its value is “low polyreactivity”.

For “QVQLVESGGGLVQAGGSLRLSCAASGRTFGYYAMGWYRQAPGTERELVASISSRGGSSYYADSVKGRFTISRDNAKNTVYLQMNSLKPEDTAVYYCNAPSWSGSRTYYYWGQGTQVTVSS”, which “polyreactivity (PSR sort gate)” value is on record?
The value was “high polyreactivity”.

For “QVQLVESGGGLVQAGGSLRLSCAASGRTFGYYAMGWYRQSPGKERELVAAITSGGRTYYADSVKGRFTISRDNAKNTVYLQMNSLKPEDTAVYYCNAPARWGSRVAWYEYWGQGTQVSVSS”, which “polyreactivity (PSR sort gate)” value is on record?
Its value is “high polyreactivity”.

Which “polyreactivity (PSR sort gate)” value does the source give for “QVQLVESGGGLVQAGGSLRLSCAASGRTFGYYVMGWYRQAPGKERELVAAITYTGGSTYYADSVKGRFTISRDNAKNTVYLQMNSLKPEDTAVYYCATSTYKPTYGYDYWGKGTQVTVSS” here?
The value was “low polyreactivity”.

With “QVQLVESGGGLVQAGGSLRLSCAASGRTFHGYAMGWYRQAPGKERELVAAINASGGRTYYADSVKGRFTISRDNAKNTVYLQMNRLKPEDTAVYYCAVYSASFRYGLAYDYWGQGTQVTVSS” as the sequence, how does the “polyreactivity (PSR sort gate)” value read?
Its value is “high polyreactivity”.

With “QVQLVESGGGLVQAGGSLRLSCAASGRTFHIYAMGWYRQAPGKERELVAAIRGRSGSTYYADSVKGRFTISRDNAKNTVYLQMNSLKPEDTAVYYCAAEYWGRYGAPEYDYWGQGTQVTVSS” as the sequence, how does the “polyreactivity (PSR sort gate)” value read?
The value was “high polyreactivity”.

For “QVQLVESGGGLVQAGGSLRLSCAASGRTFHRYVMGWYRQAPGKERELVAAISKSGGRTYYADSVKGRFTISRDNAKNTVYLQMNSLKPEDTAVYYYNARTAAGALYDYWGQGTQVTVSS”, which “polyreactivity (PSR sort gate)” value is on record?
The value was “high polyreactivity”.

For “QVQLVESGGGLVQAGGSLRLSCAASGRTFHVYAMGWYRPAPGKERELVATITDGSTNYADSVKGRFTISRDNAKNTVYLQMNSLKPEDSAVYYCATVRAWIPSGDYEYWGQGTQVTVSS”, which “polyreactivity (PSR sort gate)” value is on record?
Its value is “low polyreactivity”.

Which “polyreactivity (PSR sort gate)” value does the source give for “QVQLVESGGGLVQAGGSLRLSCAASGRTFHYNAMGWYRQAPGKERELVAAITRSGGSTYYADSVKGRFTISRDNAKNTVYLQMNSLKPEDTAVYYCAAGWRSVSVRYYGPSDYWGQGTQVTVSS” here?
The value was “low polyreactivity”.

With “QVQLVESGGGLVQAGGSLRLSCAASGRTFHYYAMGWYRQAPGKERELVAAISVSGGSTYYADSVKGRFTISRDNAKNTVYLQMNSLKPEDTAVYYCAADDYLVEHDYWGQGTQVTVSS” as the sequence, how does the “polyreactivity (PSR sort gate)” value read?
Its value is “low polyreactivity”.

Which “polyreactivity (PSR sort gate)” value does the source give for “QVQLVESGGGLVQAGGSLRLSCAASGRTFHYYAMGWYRQAPGKERELVAAITRGGNTYYADSVKGRFTISRDNAKNTVYLQMNSLKPEDTAVYYCAKDNHFEAYRYDYWGQGTQVTVSS” here?
The value was “low polyreactivity”.

Which “polyreactivity (PSR sort gate)” value does the source give for “QVQLVESGGGLVQAGGSLRLSCAASGRTFHYYVRGWSRQAPGKERELVAAISRSGGNTYYADSVKGRFTISRDNAKNTVYLQMNSLKPEDTAVNYCAAALSAYVKWDYYYWGQGTQVTVSS” here?
The value was “low polyreactivity”.

Which “polyreactivity (PSR sort gate)” value does the source give for “QVQLVESGGGLVQAGGSLRLSCAASGRTFIAYAMGWYRPAPGKERALVAAITSSGGSTYYADSVKGRFTISRDNAKNTVYLQMNSLKPEDTAVFYCATDIYESPYFYYSYYYWGQGTQVTVSS” here?
Its value is “low polyreactivity”.

With “QVQLVESGGGLVQAGGSLRLSCAASGRTFIENAMGWYRQAPGKERELVAAISRGGSTYYADSVKGRFTMSRDNAKNTVYLQMNSLKPEDTAVYYCAADYFYLFHYSSQKYSRYEYWGQGTQVTVSS” as the sequence, how does the “polyreactivity (PSR sort gate)” value read?
The value was “low polyreactivity”.

With “QVQLVESGGGLVQAGGSLRLSCAASGRTFIGNAMGWYRQAPGKERELVATITSSAGTTYYADSVKGRFTISRDNAKNTVYLQMNSLKPEDTAVYYCAKRIWRSYPYRAYYSEFGYWGQGTQVTVSS” as the sequence, how does the “polyreactivity (PSR sort gate)” value read?
The value was “high polyreactivity”.

With “QVQLVESGGGLVQAGGSLRLSCAASGRTFIIYAMGWYRQAPGKERELVATISIGGSTYADSVKGRFTISRDNAKNTVYLQMNSLKPEDTAVYYCAARGRKYPPRDYWGQGPQVTVSS” as the sequence, how does the “polyreactivity (PSR sort gate)” value read?
Its value is “high polyreactivity”.

Which “polyreactivity (PSR sort gate)” value does the source give for “QVQLVESGGGLVQAGGSLRLSCAASGRTFILYAMGWYRQAPWKERELVAAITRRGGRTYYADSVKGRFTISRDNAKNTVYLQMNSLKREDTAVYYCAADQYYYTQPSDMDYWGQGTQVTVSS” here?
The value was “high polyreactivity”.
